# Earlier results as cited in PMC7369927.
# Where two headings read alike, the source gives them in different places.
# What was measured:
# AT1 receptor [1] = biological target: AT1 receptor (UniProt P30556)
# AT1 receptor [2] = biological target: AT1 receptor (UniProt P30556); remark: listed apart in the source
# Chain of UniProt P30556 (P30556 whole entry): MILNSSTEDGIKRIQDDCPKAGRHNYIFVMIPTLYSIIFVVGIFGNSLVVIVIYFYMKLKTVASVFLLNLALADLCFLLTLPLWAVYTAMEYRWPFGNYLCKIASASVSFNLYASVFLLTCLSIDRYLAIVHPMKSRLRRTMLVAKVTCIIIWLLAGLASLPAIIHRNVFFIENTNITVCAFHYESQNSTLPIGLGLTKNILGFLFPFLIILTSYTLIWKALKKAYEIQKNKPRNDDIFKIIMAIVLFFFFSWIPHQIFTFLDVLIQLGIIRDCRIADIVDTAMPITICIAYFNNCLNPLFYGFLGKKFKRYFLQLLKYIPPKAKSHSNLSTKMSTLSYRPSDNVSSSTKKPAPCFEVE
Substance,Kd (AT1 receptor [1]),Kd (AT1 receptor [2])
Ang II (from UniProt P01019),2 nM,
Ang-(1-7) (from UniProt P01019),,200 nM
